The results in this text go back to article PMC4966588.

The assay deals with gp41 of HIV-1 NL4.3 viral particles (HIV-1 NL4.3).

For the molecule “alpha-1-antitrypsin (from UniProt P01009 25-418) (natural protein)”, the cytosolic viral p24 (ELISA) in primary CD4+ T cells pretreated with AAT and infected with HIV-1 NL4.3 Gag-iGFP is > 60 % decrease; the entry of HIV-1 NL4.3 Gag-iGFP into primary CD4+ T cells pretreated with AAT (0.5 g/L), GFP by flow cytometry, against untreated cells was > 60 % decrease.

B1: synthesized C-terminus fragment of AAT (peptide)
peptide: KGTEAAGAMFLEAIPMSIPPEVKFNKPFVFLMIDQNTKSP
For B1, the cytosolic viral p24 (ELISA) in primary CD4+ T cells pretreated with C and infected with HIV-1 NL4.3 Gag-iGFP, against cells pretreated with AAT is > 50 % decrease; the entry of HIV-1 NL4.3 Gag-iGFP into primary CD4+ T cells pretreated with C (0.05 g/L), GFP by flow cytometry, against cells pretreated with AAT was > 50 % decrease.
